Measured values: US20130130320, “ENZYMES” (published 2013)

T1: TGK (TgoT Y409G E664K) (Thermococcus gorgonarius, UniProt P56689 SEQ:1-773, Y409G,E664K)
T1 sequence: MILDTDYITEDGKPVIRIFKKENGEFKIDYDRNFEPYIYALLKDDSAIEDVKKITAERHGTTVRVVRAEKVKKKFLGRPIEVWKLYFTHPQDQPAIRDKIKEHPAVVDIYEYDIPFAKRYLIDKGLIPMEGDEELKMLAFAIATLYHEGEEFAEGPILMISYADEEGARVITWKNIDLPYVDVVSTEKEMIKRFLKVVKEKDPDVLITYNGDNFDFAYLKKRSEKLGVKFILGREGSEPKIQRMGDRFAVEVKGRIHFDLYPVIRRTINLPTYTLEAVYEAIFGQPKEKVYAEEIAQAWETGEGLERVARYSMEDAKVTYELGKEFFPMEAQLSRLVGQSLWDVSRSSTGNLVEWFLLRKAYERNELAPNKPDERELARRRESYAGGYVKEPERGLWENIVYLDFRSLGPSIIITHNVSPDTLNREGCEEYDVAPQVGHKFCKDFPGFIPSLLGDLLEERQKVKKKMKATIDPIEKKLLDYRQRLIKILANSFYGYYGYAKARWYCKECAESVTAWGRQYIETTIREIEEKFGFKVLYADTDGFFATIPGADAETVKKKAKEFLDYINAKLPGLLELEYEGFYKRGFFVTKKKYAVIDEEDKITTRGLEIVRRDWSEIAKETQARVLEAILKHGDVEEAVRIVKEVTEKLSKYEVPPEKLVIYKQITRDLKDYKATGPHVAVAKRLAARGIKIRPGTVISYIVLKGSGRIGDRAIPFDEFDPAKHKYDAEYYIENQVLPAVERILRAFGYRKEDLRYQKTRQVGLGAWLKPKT

B1: K0 DNA primer / TempK4 (dsDNA)
DNA 1: GCACGGCAGCACGTG
DNA 2: ACTGCGATGACTGTACTCGTCTAGTAGCACTGCACGTGCTGCCGTGC

Experiments:
Tat (HIV-1?) = test: competition
TGK (TgoT Y409G E664K) = biological target: T1, TGK (TgoT Y409G E664K); test: EMSA; second gate mutation vs parental E664; individual mutants and Kd values not stated; Thermopol, 1 mM EDTA; settings: label: 5'-FITC primer, 5'-biotin template, 5' template overhang
Protocol: The reactions were mixed, heated to 94° C. for 30 sec and cooled at 0.1° C./sec to 4° C. before loading onto precooled 6% TBE gel (Invitrogen) and run for 1 h at 100V in precooled 1×TBE. Bands were quantified using a Typhoon Trio and ImageQuant and the shift fitted to y=(Bmax*x)/(Kd+x) using MatLab (The MathWorks Ltd).

| Molecule | IC50 (Tat (HIV-1?); IC50 of HNA aptamer T5S8-7 displacing Tat from immobilised miniTAR (CI95 1.3-2.8)) | IC50 (Tat (HIV-1?); IC50 of RNA aptamer R06 displacing Tat from immobilised miniTAR (CI95 166-675)) | binding result (TGK (TgoT Y409G E664K)) |
| --- | --- | --- | --- |
| miniTAR RNA | 1.9 nM | 313 nM | – |
| B1 | – | – | binds |
